Data published in patent publication US20200399344A1.

Key:
[1] = molecular target: hCD2 expressed on CHO-K1/hCD2 cells (human) (UniProt P06729); assay: flow cytometry, isotype control stain of Cho-K1-Luc hCD2 clone 4; unstained cells 362
[2] = molecular target: mCD28 expressed on CHO-K1/mCD28 cells (mouse) (UniProt P31041); assay: flow cytometry, isotype control stain (sample Chok1-IsotypeCD28); unstained cells 286
[3] = molecular target: m2B4 expressed on CHO-K1/m2B4 cells (mouse) (UniProt Q07763); assay: flow cytometry, isotype control stain of Cho-K1-NFkB-Luc-m2B4 clone C2; unstained cells 2.00
Chain of m2B4 expressed on CHO-K1/m2B4 cells (mouse) (Q07763 20-397): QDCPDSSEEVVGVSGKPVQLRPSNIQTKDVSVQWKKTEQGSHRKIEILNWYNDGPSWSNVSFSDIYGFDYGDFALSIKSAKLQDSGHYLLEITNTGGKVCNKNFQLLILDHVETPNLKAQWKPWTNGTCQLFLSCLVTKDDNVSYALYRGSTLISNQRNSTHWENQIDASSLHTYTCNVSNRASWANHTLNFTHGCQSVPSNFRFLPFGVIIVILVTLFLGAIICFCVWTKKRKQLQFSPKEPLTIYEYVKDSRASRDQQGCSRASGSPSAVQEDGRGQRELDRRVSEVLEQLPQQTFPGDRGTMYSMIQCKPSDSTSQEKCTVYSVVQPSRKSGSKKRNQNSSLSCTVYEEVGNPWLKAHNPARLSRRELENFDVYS

[4] = molecular target: hCD28 expressed on CHO-K1/hCD28 cells (human) (UniProt P10747); assay: flow cytometry, isotype control stain of CHO-K1/hCD28 cells (table row 1); unstained cells 130
Chain of hCD28 expressed on CHO-K1/hCD28 cells (human) (P10747 19-220): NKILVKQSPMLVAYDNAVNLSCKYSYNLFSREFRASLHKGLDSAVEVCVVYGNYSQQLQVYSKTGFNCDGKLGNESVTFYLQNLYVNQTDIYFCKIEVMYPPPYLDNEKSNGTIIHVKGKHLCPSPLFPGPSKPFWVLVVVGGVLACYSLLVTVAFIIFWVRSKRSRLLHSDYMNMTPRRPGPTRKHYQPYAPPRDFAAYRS

Chain of hCD2 expressed on CHO-K1/hCD2 cells (human) (P06729 25-351): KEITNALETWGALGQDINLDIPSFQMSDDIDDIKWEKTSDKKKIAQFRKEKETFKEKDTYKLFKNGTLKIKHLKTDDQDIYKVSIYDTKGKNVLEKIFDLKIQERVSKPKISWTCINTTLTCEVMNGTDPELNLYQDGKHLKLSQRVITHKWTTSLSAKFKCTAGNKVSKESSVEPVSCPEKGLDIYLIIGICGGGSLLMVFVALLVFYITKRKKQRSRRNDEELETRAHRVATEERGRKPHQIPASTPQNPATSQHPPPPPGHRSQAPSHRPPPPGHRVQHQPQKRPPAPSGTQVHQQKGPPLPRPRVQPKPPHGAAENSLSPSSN
Chain of mCD28 expressed on CHO-K1/mCD28 cells (mouse) (P31041 20-218): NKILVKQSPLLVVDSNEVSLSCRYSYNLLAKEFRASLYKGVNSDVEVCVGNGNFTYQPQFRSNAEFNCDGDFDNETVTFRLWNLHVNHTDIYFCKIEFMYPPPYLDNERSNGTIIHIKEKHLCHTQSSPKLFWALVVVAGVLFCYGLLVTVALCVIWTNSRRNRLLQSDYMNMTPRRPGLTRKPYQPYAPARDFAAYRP

Geometric Mean : PE-A [1]: 1760
Geometric Mean : PE-A [2]: 678
Geometric Mean : PE-A [3]: 178
Geometric Mean : PE-A [4]: 589
Substance: isotype control antibody
